Values quoted from earlier work, collected in article PMC8880779 (International Journal of Molecular Sciences, 2022).

Experiments:
mouse model of AD = test system: mouse model of AD; set-up: method as in PMID 29164613
cell-based AD model = test system: cell-based AD model; set-up: method as in PMID 23519124

B1: CaM-like skin protein: present at concentrations ranging between 3 and 6 nM in the human cerebrospinal fluid (protein, UniProt Q9NZT1 2-146, looked up)
Calmodulin-like protein 5: AGELTPEEEAQYKKAFSAVDTDGNGTINAQELGAALKATGKNLSEAQLRKLISEVDSDGDGEISFQEFLTAAKKARAGLEDLQVAFRAFDQDGDGHITVDELRRAMAGLGQPLPQEELDAMIREADVDQDGRVNYEEFARMLAQE
For B1, the “protection against spatial learning impairment” value (mouse model of AD) is listed as “affords efficient protection against spatial learning impairment” and the “inhibition of neuronal death” value (cell-based AD model) is listed as “inhibits neuronal death in a cell-based AD model”.
